Experimental data published in US20080050363A1 (published 2008).
Ends that are not written are not given here.

T1: human OGF receptor (OGFr), native, in nuclear preparations of human cells and tissues (human, UniProt Q9NZT2 1-662, limits assumed)
T1 construct: Native receptor in nuclear homogenates (placenta, PANC-1, MIA PaCa-2, Capan-1, BxPC-3, pancreatic tissue, head and neck tissue); also called zeta opioid receptor; receptor for OGF
T1 chain: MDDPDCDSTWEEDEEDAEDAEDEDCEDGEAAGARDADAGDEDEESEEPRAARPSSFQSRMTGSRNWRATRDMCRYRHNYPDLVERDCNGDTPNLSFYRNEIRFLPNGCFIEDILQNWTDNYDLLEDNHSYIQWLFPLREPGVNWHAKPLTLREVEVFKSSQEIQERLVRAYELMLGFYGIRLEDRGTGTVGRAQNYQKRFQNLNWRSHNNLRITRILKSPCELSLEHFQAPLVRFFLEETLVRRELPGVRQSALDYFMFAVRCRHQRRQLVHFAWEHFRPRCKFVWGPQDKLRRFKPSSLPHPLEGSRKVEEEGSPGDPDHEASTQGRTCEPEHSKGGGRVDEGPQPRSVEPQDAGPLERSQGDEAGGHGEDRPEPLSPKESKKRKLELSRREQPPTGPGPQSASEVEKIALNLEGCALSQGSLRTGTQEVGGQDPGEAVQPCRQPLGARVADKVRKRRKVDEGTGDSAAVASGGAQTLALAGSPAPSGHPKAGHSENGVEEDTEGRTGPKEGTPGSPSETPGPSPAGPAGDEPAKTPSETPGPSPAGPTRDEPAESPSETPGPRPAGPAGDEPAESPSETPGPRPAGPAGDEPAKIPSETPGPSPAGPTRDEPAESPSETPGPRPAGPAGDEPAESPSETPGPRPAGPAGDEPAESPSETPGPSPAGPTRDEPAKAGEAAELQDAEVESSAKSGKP

T2: 12-GST fusion protein (GST fused to rat OGFr, all 580 amino acids, from clone #12) (rat, UniProt Q9QXY4 1-580)
T2 construct: The order GST then OGFr follows the pGEX-3X vector; also called purified fusion protein from the rat OGFr cDNA clone #12; not shown: glutathione-S-transferase (GST) of the pGEX-3X expression vector
T2 sequence: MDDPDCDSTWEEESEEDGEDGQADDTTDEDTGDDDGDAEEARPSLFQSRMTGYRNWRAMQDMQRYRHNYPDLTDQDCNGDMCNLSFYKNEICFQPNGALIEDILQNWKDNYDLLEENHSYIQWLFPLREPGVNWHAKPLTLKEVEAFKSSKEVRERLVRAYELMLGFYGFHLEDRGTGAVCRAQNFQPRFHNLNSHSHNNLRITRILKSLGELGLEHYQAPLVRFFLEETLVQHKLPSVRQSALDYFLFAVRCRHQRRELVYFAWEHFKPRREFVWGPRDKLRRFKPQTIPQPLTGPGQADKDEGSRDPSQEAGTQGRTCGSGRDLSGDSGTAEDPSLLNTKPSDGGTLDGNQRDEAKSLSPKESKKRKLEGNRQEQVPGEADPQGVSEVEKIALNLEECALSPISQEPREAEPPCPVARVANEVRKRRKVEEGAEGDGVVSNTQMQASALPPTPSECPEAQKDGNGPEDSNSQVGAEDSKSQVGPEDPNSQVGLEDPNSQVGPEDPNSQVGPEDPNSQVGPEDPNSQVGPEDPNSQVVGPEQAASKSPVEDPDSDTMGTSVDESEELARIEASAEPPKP

B1: dynorphin A1-8 (peptide, UniProt P01213 207-214, looked up)
peptide: YGGFLRRI
notes: domain: Dynorphin A1-8; 1-8 counts on dynorphin A, not on the precursor
B2: [Met^5]-enkephalin (opioid growth factor) (peptide, UniProt P01210 100-104, looked up)
peptide: YGGFM
modifications: also: [3H] label on radioligand form
notes: domain: [Met^5]-enkephalin; only the pentapeptide stood in the assay; also called OGF; [^3H]-[Met^5]-enkephalin

Experiments:
[1] = target: human OGF receptor (OGFr), native, in nuclear preparations of human cells and tissues (human) (UniProt Q9NZT2); experiment: competition with [3H]-[Met5]-enkephalin, PANC-1 nuclear homogenates; IC50/Kd
[2] = target: T1, human OGF receptor (OGFr), native, in …; experiment: as above
Experimental: Each concentration was run in triplicate and every compound was tested twice.
Competition experiments using 1 or 2 nM [³H]

[3] = target: T2, 12-GST fusion protein (GST fused to rat …); experiment: [3H]-[Met5]-enkephalin saturation binding, filter assay, purified 12-GST fusion protein, 22 C
Experimental: Fusion proteins (80-120 ng/tube) were incubated for 30 min with shaking at 22° C. Non-specific binding was measured in the presence of unlabeled [Met⁵]-enkephalin. In some assays, NTX (10⁻³ M) was added to the reaction mixture to monitor opioid antagonist blockade of binding. Binding was terminated by filtering homogenates through Whatman GF/B filters. Saturation isotherms were plotted using GraphPad Prism software (GraphPad Software Inc., San Diego, Calif.).

[4] = target: T1, human OGF receptor (OGFr), native, in …; experiment: radioligand saturation binding, nuclear-enriched fraction of human placenta

| Molecule | IC50 [1] | IC50 [2] | also measured |
| --- | --- | --- | --- |
| [D-Ala^2, N-Me-Phe^4, Gly^5-ol]-enkephalin (peptide) | > 100 µM |  |  |
| ICI-174, 568 (peptide) | > 100 µM |  |  |
| [D-Pen^2, Pen^5]-enkephalin (peptide) | > 100 µM |  |  |
| B1 |  | > 100 µM |  |
| B2 |  |  | Kd [3]: 0.0028 µM; Kd [4]: 0.0123 µM |
| YGGFL (peptide, UniProt P01210 230-234, looked up, domain: Leucine enkephalin) [Leucine enkephalin] |  | > 100 µM |  |
